Measured values reported in IntAct's records for PubMed 18715871.

B1: Serine/threonine-protein phosphatase 4 catalytic subunit (Homo sapiens), P60510 (parent)
chain: MAEISDLDRQIEQLRRCELIKESEVKALCAKAREILVEESNVQRVDSPVTVCGDIHGQFYDLKELFRVGGDVPETNYLFMGDFVDRGFYSVETFLLLLALKVRYPDRITLIRGNHESRQITQVYGFYDECLRKYGSVTVWRYCTEIFDYLSLSAIIDGKIFCVHGGLSPSIQTLDQIRTIDRKQEVPHDGPMCDLLWSDPEDTTGWGVSPRGAGYLFGSDVVAQFNAANDIDMICRAHQLVMEGYKWHFNETVLTVWSAPNYCYRCGNVAAILELDEHLQKDFIIFEAAPQETRGIPSKKPVADYFL
partner: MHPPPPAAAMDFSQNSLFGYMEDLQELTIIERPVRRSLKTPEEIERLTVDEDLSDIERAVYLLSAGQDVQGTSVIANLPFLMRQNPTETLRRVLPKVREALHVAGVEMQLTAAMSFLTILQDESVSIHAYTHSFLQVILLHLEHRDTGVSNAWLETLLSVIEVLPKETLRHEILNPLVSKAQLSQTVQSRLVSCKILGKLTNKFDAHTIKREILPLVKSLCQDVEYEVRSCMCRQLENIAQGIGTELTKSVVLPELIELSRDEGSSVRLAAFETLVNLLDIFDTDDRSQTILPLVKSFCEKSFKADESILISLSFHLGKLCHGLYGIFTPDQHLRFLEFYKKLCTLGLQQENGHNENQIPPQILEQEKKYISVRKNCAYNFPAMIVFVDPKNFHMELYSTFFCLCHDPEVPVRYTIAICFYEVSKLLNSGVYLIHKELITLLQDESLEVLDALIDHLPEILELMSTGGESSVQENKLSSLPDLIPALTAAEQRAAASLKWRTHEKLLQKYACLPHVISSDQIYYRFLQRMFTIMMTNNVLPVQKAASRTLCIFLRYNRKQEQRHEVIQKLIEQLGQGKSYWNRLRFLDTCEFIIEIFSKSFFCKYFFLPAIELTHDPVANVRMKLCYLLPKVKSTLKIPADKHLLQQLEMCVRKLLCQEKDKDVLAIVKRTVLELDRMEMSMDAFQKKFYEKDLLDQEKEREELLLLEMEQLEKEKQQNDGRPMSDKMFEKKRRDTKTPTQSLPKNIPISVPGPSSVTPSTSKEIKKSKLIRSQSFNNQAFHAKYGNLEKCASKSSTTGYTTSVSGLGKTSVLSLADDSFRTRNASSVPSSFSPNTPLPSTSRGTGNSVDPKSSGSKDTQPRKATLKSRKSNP
B2: Serine/threonine-protein phosphatase 4 regulatory subunit 4 (Homo sapiens), Q6NUP7 (parent)
chain: B1 partner
partner: B1 chain
B3: Serine/threonine-protein phosphatase 4 catalytic subunit (Homo sapiens), P60510 (parent)
chain: B1 chain
partner: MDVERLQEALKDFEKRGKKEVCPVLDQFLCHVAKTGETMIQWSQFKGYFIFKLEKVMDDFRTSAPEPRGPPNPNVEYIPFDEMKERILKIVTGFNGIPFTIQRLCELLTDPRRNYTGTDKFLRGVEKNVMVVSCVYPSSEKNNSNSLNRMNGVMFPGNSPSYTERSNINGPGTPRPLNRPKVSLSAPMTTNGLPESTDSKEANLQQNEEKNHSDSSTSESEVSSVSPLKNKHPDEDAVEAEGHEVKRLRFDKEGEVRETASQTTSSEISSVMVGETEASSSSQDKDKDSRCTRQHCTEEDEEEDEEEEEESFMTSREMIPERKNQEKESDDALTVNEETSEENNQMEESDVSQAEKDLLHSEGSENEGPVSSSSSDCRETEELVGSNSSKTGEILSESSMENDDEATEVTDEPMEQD
B4: Serine/threonine-protein phosphatase 4 catalytic subunit (Homo sapiens), P60510 (parent)
chain: B1 chain
partner: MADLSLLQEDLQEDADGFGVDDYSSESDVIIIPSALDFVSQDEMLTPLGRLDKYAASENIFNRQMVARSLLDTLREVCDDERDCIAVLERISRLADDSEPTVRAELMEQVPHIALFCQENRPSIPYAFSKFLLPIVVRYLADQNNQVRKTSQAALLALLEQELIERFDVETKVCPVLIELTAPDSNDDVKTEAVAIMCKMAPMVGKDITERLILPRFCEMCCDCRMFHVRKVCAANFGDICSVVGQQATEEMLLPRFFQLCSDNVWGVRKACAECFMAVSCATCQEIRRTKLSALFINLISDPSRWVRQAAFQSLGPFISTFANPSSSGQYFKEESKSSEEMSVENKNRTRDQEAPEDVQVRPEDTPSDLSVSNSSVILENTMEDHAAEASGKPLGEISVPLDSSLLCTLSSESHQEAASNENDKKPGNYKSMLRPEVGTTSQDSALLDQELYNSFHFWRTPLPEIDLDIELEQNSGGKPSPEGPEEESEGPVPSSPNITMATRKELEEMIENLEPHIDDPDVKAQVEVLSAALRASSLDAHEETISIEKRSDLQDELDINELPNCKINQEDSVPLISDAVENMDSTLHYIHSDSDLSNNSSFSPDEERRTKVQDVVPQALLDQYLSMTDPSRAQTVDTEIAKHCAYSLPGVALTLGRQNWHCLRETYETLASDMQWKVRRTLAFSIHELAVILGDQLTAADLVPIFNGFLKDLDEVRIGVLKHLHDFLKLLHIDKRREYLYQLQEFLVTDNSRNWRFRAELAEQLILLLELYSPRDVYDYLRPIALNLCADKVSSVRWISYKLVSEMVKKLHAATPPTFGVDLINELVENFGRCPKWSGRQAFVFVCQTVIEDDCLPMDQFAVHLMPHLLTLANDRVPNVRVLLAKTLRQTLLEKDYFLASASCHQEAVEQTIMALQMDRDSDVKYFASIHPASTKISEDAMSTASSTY

Variants of: B1
Details: with pp4r4_human PPP4R4, Q6NUP7

Variant	effect of a mutation on the interaction
MAEISDLDRQIEQLRRCELIKESEVKALCAKAREILVEESNVQRVDSPVTVCGDIHGQFYDLKELFRVGGDVPETDYLFMGDFVDRGFYSVETFLLLLALKVRYPDRITLIRGNHESRQITQVYGFYDECLRKYGSVTVWRYCTEIFDYLSLSAIIDGKIFCVHGGLSPSIQTLDQIRTIDRKQEVPHDGPMCDLLWSDPEDTTGWGVSPRGAGYLFGSDVVAQFNAANDIDMICRAHQLVMEGYKWHFNETVLTVWSAPNYCYRCGNVAAILELDEHLQKDFIIFEAAPQETRGIPSKKPVADYFL [N76D]	decreasing interaction
MAEISDLDRQIEQLRRCELIKESEVKALCAKAREILVEKSNVQRVDSPVTVCGDIHGQFYDLKELFRVGGDVPETNYLFMGDFVDRGFYSVETFLLLLALKVRYPDRITLIRGNHESRQITQVYGFYDECLRKYGSVTVWRYCTEIFDYLSLSAIIDGKIFCVHGGLSPSIQTLDQIRTIDRKQEVPHDGPMCDLLWSDPEDTTGWGVSPRGAGYLFGSDVVAQFNAANDIDMICRAHQLVMEGYKWHFNETVLTVWSAPNYCYRCGNVAAILELDEHLQKDFIIFEAAPQETRGIPSKKPVADYFL [E39K]	decreasing interaction
MAEISDLDRQIEQLRRCELIKESEVKALCAKAREILVEESNVQRVDSPVTVCGDIHGQFYDLKKLFRVGGDVPETNYLFMGDFVDRGFYSVETFLLLLALKVRYPDRITLIRGNHESRQITQVYGFYDECLRKYGSVTVWRYCTEIFDYLSLSAIIDGKIFCVHGGLSPSIQTLDQIRTIDRKQEVPHDGPMCDLLWSDPEDTTGWGVSPRGAGYLFGSDVVAQFNAANDIDMICRAHQLVMEGYKWHFNETVLTVWSAPNYCYRCGNVAAILELDEHLQKDFIIFEAAPQETRGIPSKKPVADYFL [E64K]	disrupting interaction
MAEISDLDRQIEQLRRCELIKESEVKALCAKAREILVEESNVQRVDSPVTVCGDIHGQFYDLKELFRVGGDVPETNYLFMGDFVDRGFYSVETFLLLLALKVRYPDEITLIRGNHESRQITQVYGFYDECLRKYGSVTVWRYCTEIFDYLSLSAIIDGKIFCVHGGLSPSIQTLDQIRTIDRKQEVPHDGPMCDLLWSDPEDTTGWGVSPRGAGYLFGSDVVAQFNAANDIDMICRAHQLVMEGYKWHFNETVLTVWSAPNYCYRCGNVAAILELDEHLQKDFIIFEAAPQETRGIPSKKPVADYFL [R107E]	decreasing interaction
MAEISDLDRQIEQLRRCELIKESEVKALCAKAREILVEESNVQRVDSPVTVCGDIHGQFYDLKELFRVGGDVPETNYLFMGDFVDRGFYSVETFLLLLALKVRYPDRITLIRGNHESRQITQVYGFYDECLRKYGSVTVWRYCTEIFDYLSLSAIIDGKIFCVHGGLSPSIQTLDQIRTIDRKQEVPHDGPMCDLLWSDPEDTTGWGVSPRGAGYLFGSDVVAQFNAANDIDMICRAHQLVMEGYKWHFNETVLTVWSAPNYCYRCGNVAAILELDKHLQKDFIIFEAAPQETRGIPSKKPVADYFL [E277K]	disrupting interaction

Variants of: B2
Details: with pp4c_human PPP4C

Variant	effect of a mutation on the interaction
V618A	disrupting interaction
R501D	disrupting interaction
V618D	disrupting interaction

Variants of: B3
Details: with pp4r2_human PPP4R2, Q9NY27

Variant	effect of a mutation on the interaction
MAEISDLDRQIEQLRRCELIKESEVKALCAKAREILVEKSNVQRVDSPVTVCGDIHGQFYDLKELFRVGGDVPETNYLFMGDFVDRGFYSVETFLLLLALKVRYPDRITLIRGNHESRQITQVYGFYDECLRKYGSVTVWRYCTEIFDYLSLSAIIDGKIFCVHGGLSPSIQTLDQIRTIDRKQEVPHDGPMCDLLWSDPEDTTGWGVSPRGAGYLFGSDVVAQFNAANDIDMICRAHQLVMEGYKWHFNETVLTVWSAPNYCYRCGNVAAILELDEHLQKDFIIFEAAPQETRGIPSKKPVADYFL [E39K]	disrupting interaction
MAEISDLDRQIEQLRRCELIKESEVKALCAKAREILVEESNVQRVDSPVTVCGDIHGQFYDLKELFRVGGDVPETDYLFMGDFVDRGFYSVETFLLLLALKVRYPDRITLIRGNHESRQITQVYGFYDECLRKYGSVTVWRYCTEIFDYLSLSAIIDGKIFCVHGGLSPSIQTLDQIRTIDRKQEVPHDGPMCDLLWSDPEDTTGWGVSPRGAGYLFGSDVVAQFNAANDIDMICRAHQLVMEGYKWHFNETVLTVWSAPNYCYRCGNVAAILELDEHLQKDFIIFEAAPQETRGIPSKKPVADYFL [N76D]	disrupting interaction

Other lines, results leading:

effect of a mutation on the interaction	Variant
disrupting interaction	MAEISDLDRQIEQLRRCELIKESEVKALCAKAREILVEESNVQRVDSPVTVCGDIHGQFYDLKELFRVGGDVPETNYLFMGDFVDRGFYSVETFLLLLALKVRYPDEITLIRGNHESRQITQVYGFYDECLRKYGSVTVWRYCTEIFDYLSLSAIIDGKIFCVHGGLSPSIQTLDQIRTIDRKQEVPHDGPMCDLLWSDPEDTTGWGVSPRGAGYLFGSDVVAQFNAANDIDMICRAHQLVMEGYKWHFNETVLTVWSAPNYCYRCGNVAAILELDEHLQKDFIIFEAAPQETRGIPSKKPVADYFL [R107E]
decreasing interaction	MAEISDLDRQIEQLRRCELIKESEVKALCAKAREILVEESNVQRVDSPVTVCGDIHGQFYDLKELFRVGGDVPETNYLFMGDFVDRGFYSVETFLLLLALKVRYPDRITLIRGNHESRQITQVYGFYDECLRKYGSVTVWRYCTEIFDYLSLSAIIDGKIFCVHGGLSPSIQTLDQIRTIDRKQEVPHDGPMCDLLWSDPEDTTGWGVSPRGAGYLFGSDVVAQFNAANDIDMICRAHQLVMEGYKWHFNETVLTVWSAPNYCYRCGNVAAILELDKHLQKDFIIFEAAPQETRGIPSKKPVADYFL [E277K]

Variants of: B4
Details: with pp4r1_human PPP4R1, Q8TF05

Variant	effect of a mutation on the interaction
MAEISDLDRQIEQLRRCELIKESEVKALCAKAREILVEKSNVQRVDSPVTVCGDIHGQFYDLKELFRVGGDVPETNYLFMGDFVDRGFYSVETFLLLLALKVRYPDRITLIRGNHESRQITQVYGFYDECLRKYGSVTVWRYCTEIFDYLSLSAIIDGKIFCVHGGLSPSIQTLDQIRTIDRKQEVPHDGPMCDLLWSDPEDTTGWGVSPRGAGYLFGSDVVAQFNAANDIDMICRAHQLVMEGYKWHFNETVLTVWSAPNYCYRCGNVAAILELDEHLQKDFIIFEAAPQETRGIPSKKPVADYFL [E39K]	disrupting interaction
MAEISDLDRQIEQLRRCELIKESEVKALCAKAREILVEESNVQRVDSPVTVCGDIHGQFYDLKKLFRVGGDVPETNYLFMGDFVDRGFYSVETFLLLLALKVRYPDRITLIRGNHESRQITQVYGFYDECLRKYGSVTVWRYCTEIFDYLSLSAIIDGKIFCVHGGLSPSIQTLDQIRTIDRKQEVPHDGPMCDLLWSDPEDTTGWGVSPRGAGYLFGSDVVAQFNAANDIDMICRAHQLVMEGYKWHFNETVLTVWSAPNYCYRCGNVAAILELDEHLQKDFIIFEAAPQETRGIPSKKPVADYFL [E64K]	disrupting interaction
MAEISDLDRQIEQLRRCELIKESEVKALCAKAREILVEESNVQRVDSPVTVCGDIHGQFYDLKELFRVGGDVPETDYLFMGDFVDRGFYSVETFLLLLALKVRYPDRITLIRGNHESRQITQVYGFYDECLRKYGSVTVWRYCTEIFDYLSLSAIIDGKIFCVHGGLSPSIQTLDQIRTIDRKQEVPHDGPMCDLLWSDPEDTTGWGVSPRGAGYLFGSDVVAQFNAANDIDMICRAHQLVMEGYKWHFNETVLTVWSAPNYCYRCGNVAAILELDEHLQKDFIIFEAAPQETRGIPSKKPVADYFL [N76D]	disrupting interaction

The next lines start with the values.

effect of a mutation on the interaction	Variant
disrupting interaction	MAEISDLDRQIEQLRRCELIKESEVKALCAKAREILVEESNVQRVDSPVTVCGDIHGQFYDLKELFRVGGDVPETNYLFMGDFVDRGFYSVETFLLLLALKVRYPDEITLIRGNHESRQITQVYGFYDECLRKYGSVTVWRYCTEIFDYLSLSAIIDGKIFCVHGGLSPSIQTLDQIRTIDRKQEVPHDGPMCDLLWSDPEDTTGWGVSPRGAGYLFGSDVVAQFNAANDIDMICRAHQLVMEGYKWHFNETVLTVWSAPNYCYRCGNVAAILELDEHLQKDFIIFEAAPQETRGIPSKKPVADYFL [R107E]
decreasing interaction	MAEISDLDRQIEQLRRCELIKESEVKALCAKAREILVEESNVQRVDSPVTVCGDIHGQFYDLKELFRVGGDVPETNYLFMGDFVDRGFYSVETFLLLLALKVRYPDRITLIRGNHESRQITQVYGFYDECLRKYGSVTVWRYCTEIFDYLSLSAIIDGKIFCVHGGLSPSIQTLDQIRTIDRKQEVPHDGPMCDLLWSDPEDTTGWGVSPRGAGYLFGSDVVAQFNAANDIDMICRAHQLVMEGYKWHFNETVLTVWSAPNYCYRCGNVAAILELDKHLQKDFIIFEAAPQETRGIPSKKPVADYFL [E277K]
